Data published in PMC10786891, “Massively parallel profiling of RNA-targeting CRISPR-Cas13d”.

T1: EsCas13d, nuclease-dead (Eubacterium siraeum, UniProt B0MS50, R295A;H300A;R849A;H854A)
T1 sequence: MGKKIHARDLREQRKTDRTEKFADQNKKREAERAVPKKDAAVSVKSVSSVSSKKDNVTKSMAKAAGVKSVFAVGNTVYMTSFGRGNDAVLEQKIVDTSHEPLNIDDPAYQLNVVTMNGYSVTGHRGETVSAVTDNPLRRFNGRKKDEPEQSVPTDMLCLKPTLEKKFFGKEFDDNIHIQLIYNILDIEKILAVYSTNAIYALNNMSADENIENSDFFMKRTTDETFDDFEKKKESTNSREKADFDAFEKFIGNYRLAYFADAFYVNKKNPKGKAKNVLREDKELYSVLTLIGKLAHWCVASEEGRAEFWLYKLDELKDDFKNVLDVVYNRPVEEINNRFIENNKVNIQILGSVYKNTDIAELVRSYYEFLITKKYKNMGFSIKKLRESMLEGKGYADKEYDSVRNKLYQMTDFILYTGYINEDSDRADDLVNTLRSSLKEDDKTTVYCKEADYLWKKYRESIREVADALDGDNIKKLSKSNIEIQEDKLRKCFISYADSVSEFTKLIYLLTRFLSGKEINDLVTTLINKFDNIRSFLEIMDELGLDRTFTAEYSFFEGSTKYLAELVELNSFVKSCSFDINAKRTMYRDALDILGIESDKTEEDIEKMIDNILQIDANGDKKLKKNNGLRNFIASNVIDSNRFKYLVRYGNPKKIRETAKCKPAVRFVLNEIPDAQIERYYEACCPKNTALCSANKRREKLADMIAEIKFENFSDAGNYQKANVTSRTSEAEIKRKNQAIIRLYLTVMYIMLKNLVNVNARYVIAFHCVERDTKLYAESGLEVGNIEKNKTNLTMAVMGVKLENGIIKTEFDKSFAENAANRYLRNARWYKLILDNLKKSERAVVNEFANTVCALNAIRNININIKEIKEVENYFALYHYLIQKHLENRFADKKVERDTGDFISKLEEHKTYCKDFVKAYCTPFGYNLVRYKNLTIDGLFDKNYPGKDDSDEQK

B1: target 1 MT 5'PFS AGG 3'PFS UGC (mixed)
RNA 1: CACCCGUGCAAAAAUGCAGGGGUCUAAAACUGAGCGGAUAACCUCUCUAUGG
RNA 2: GGGAAUGGAUCCACAUCUACGAAUUCAGGCCAUAGAGAGGUUAUCCGCUCAUGCAGAUCGGAAGAGCACACGU
B2: target 1 MT 5'PFS GUG 3'PFS AGG (mixed)
RNA 1: CACCCGUGCAAAAAUGCAGGGGUCUAAAACUGAGCGGAUAACCUCUCUAUGG
RNA 2: GGGAAUGGAUCCACAUCUACGAAUUCGUGCCAUAGAGAGGUUAUCCGCUCAAGGAGAUCGGAAGAGCACACGU
B3: target 1 MT 5'PFS GGC 3'PFS CCC (mixed)
RNA 1: CACCCGUGCAAAAAUGCAGGGGUCUAAAACUGAGCGGAUAACCUCUCUAUGG
RNA 2: GGGAAUGGAUCCACAUCUACGAAUUCGGCCCAUAGAGAGGUUAUCCGCUCACCCAGAUCGGAAGAGCACACGU
B4: target 1 MT 5'PFS UGG 3'PFS AGU (mixed)
RNA 1: CACCCGUGCAAAAAUGCAGGGGUCUAAAACUGAGCGGAUAACCUCUCUAUGG
RNA 2: GGGAAUGGAUCCACAUCUACGAAUUCUGGCCAUAGAGAGGUUAUCCGCUCAAGUAGAUCGGAAGAGCACACGU
B5: target 1 insC 3' of 17,insC 3' of 10 (mixed)
RNA 1: CACCCGUGCAAAAAUGCAGGGGUCUAAAACUGAGCGGAUAACCUCUCUAUGG
RNA 2: GGGAAUGGAUCCACAUCUACGAAUUCGUACCAUAGCAGAGGUUCAUCCGCUCACCGAGAUCGGAAGAGCACACGU
B6: target 1 MT 5'PFS GGG 3'PFS UCG (mixed)
RNA 1: CACCCGUGCAAAAAUGCAGGGGUCUAAAACUGAGCGGAUAACCUCUCUAUGG
RNA 2: GGGAAUGGAUCCACAUCUACGAAUUCGGGCCAUAGAGAGGUUAUCCGCUCAUCGAGAUCGGAAGAGCACACGU
B7: target 1 MT 5'PFS GUG 3'PFS CGC (mixed)
RNA 1: CACCCGUGCAAAAAUGCAGGGGUCUAAAACUGAGCGGAUAACCUCUCUAUGG
RNA 2: GGGAAUGGAUCCACAUCUACGAAUUCGUGCCAUAGAGAGGUUAUCCGCUCACGCAGAUCGGAAGAGCACACGU
B8: target 1 MT 5'PFS GCA 3'PFS AGG (mixed)
RNA 1: CACCCGUGCAAAAAUGCAGGGGUCUAAAACUGAGCGGAUAACCUCUCUAUGG
RNA 2: GGGAAUGGAUCCACAUCUACGAAUUCGCACCAUAGAGAGGUUAUCCGCUCAAGGAGAUCGGAAGAGCACACGU
B9: target 1 MT 5'PFS GUG 3'PFS AGU (mixed)
RNA 1: CACCCGUGCAAAAAUGCAGGGGUCUAAAACUGAGCGGAUAACCUCUCUAUGG
RNA 2: GGGAAUGGAUCCACAUCUACGAAUUCGUGCCAUAGAGAGGUUAUCCGCUCAAGUAGAUCGGAAGAGCACACGU
B10: target 1 MT 5'PFS GCC 3'PFS CUA (mixed)
RNA 1: CACCCGUGCAAAAAUGCAGGGGUCUAAAACUGAGCGGAUAACCUCUCUAUGG
RNA 2: GGGAAUGGAUCCACAUCUACGAAUUCGCCCCAUAGAGAGGUUAUCCGCUCACUAAGAUCGGAAGAGCACACGU
B11: target 1 MT 5'PFS GCC 3'PFS CUU (mixed)
RNA 1: CACCCGUGCAAAAAUGCAGGGGUCUAAAACUGAGCGGAUAACCUCUCUAUGG
RNA 2: GGGAAUGGAUCCACAUCUACGAAUUCGCCCCAUAGAGAGGUUAUCCGCUCACUUAGAUCGGAAGAGCACACGU
B12: target 1 MT 5'PFS AGU 3'PFS UCC (mixed)
RNA 1: CACCCGUGCAAAAAUGCAGGGGUCUAAAACUGAGCGGAUAACCUCUCUAUGG
RNA 2: GGGAAUGGAUCCACAUCUACGAAUUCAGUCCAUAGAGAGGUUAUCCGCUCAUCCAGAUCGGAAGAGCACACGU
B13: target 1 MT 5'PFS GCC 3'PFS CUC (mixed)
RNA 1: CACCCGUGCAAAAAUGCAGGGGUCUAAAACUGAGCGGAUAACCUCUCUAUGG
RNA 2: GGGAAUGGAUCCACAUCUACGAAUUCGCCCCAUAGAGAGGUUAUCCGCUCACUCAGAUCGGAAGAGCACACGU
B14: target 1 MT 5'PFS UAC 3'PFS CGG (mixed)
RNA 1: CACCCGUGCAAAAAUGCAGGGGUCUAAAACUGAGCGGAUAACCUCUCUAUGG
RNA 2: GGGAAUGGAUCCACAUCUACGAAUUCUACCCAUAGAGAGGUUAUCCGCUCACGGAGAUCGGAAGAGCACACGU
B15: target 1 MT 5'PFS GUG 3'PFS CGU (mixed)
RNA 1: CACCCGUGCAAAAAUGCAGGGGUCUAAAACUGAGCGGAUAACCUCUCUAUGG
RNA 2: GGGAAUGGAUCCACAUCUACGAAUUCGUGCCAUAGAGAGGUUAUCCGCUCACGUAGAUCGGAAGAGCACACGU
B16: target 1 MT 5'PFS GUG 3'PFS CGG (mixed)
RNA 1: CACCCGUGCAAAAAUGCAGGGGUCUAAAACUGAGCGGAUAACCUCUCUAUGG
RNA 2: GGGAAUGGAUCCACAUCUACGAAUUCGUGCCAUAGAGAGGUUAUCCGCUCACGGAGAUCGGAAGAGCACACGU
B17: target 1 insC 3' of 12,insC 3' of 9 (mixed)
RNA 1: CACCCGUGCAAAAAUGCAGGGGUCUAAAACUGAGCGGAUAACCUCUCUAUGG
RNA 2: GGGAAUGGAUCCACAUCUACGAAUUCGUACCAUAGAGAGGCUUACUCCGCUCACCGAGAUCGGAAGAGCACACGU
B18: target 1 MT 5'PFS GUG 3'PFS CGA (mixed)
RNA 1: CACCCGUGCAAAAAUGCAGGGGUCUAAAACUGAGCGGAUAACCUCUCUAUGG
RNA 2: GGGAAUGGAUCCACAUCUACGAAUUCGUGCCAUAGAGAGGUUAUCCGCUCACGAAGAUCGGAAGAGCACACGU
B19: target 1 MT 5'PFS GGG 3'PFS UCA (mixed)
RNA 1: CACCCGUGCAAAAAUGCAGGGGUCUAAAACUGAGCGGAUAACCUCUCUAUGG
RNA 2: GGGAAUGGAUCCACAUCUACGAAUUCGGGCCAUAGAGAGGUUAUCCGCUCAUCAAGAUCGGAAGAGCACACGU
B20: target 1 MT 5'PFS GUG 3'PFS AGC (mixed)
RNA 1: CACCCGUGCAAAAAUGCAGGGGUCUAAAACUGAGCGGAUAACCUCUCUAUGG
RNA 2: GGGAAUGGAUCCACAUCUACGAAUUCGUGCCAUAGAGAGGUUAUCCGCUCAAGCAGAUCGGAAGAGCACACGU
B21: target 1 MT 5'PFS GCA 3'PFS AGA (mixed)
RNA 1: CACCCGUGCAAAAAUGCAGGGGUCUAAAACUGAGCGGAUAACCUCUCUAUGG
RNA 2: GGGAAUGGAUCCACAUCUACGAAUUCGCACCAUAGAGAGGUUAUCCGCUCAAGAAGAUCGGAAGAGCACACGU
B22: target 1 MT 5'PFS UAU 3'PFS CUU (mixed)
RNA 1: CACCCGUGCAAAAAUGCAGGGGUCUAAAACUGAGCGGAUAACCUCUCUAUGG
RNA 2: GGGAAUGGAUCCACAUCUACGAAUUCUAUCCAUAGAGAGGUUAUCCGCUCACUUAGAUCGGAAGAGCACACGU
B23: target 1 MT 5'PFS GCC 3'PFS CUG (mixed)
RNA 1: CACCCGUGCAAAAAUGCAGGGGUCUAAAACUGAGCGGAUAACCUCUCUAUGG
RNA 2: GGGAAUGGAUCCACAUCUACGAAUUCGCCCCAUAGAGAGGUUAUCCGCUCACUGAGAUCGGAAGAGCACACGU
B24: target 1 G13A,C22U (mixed)
RNA 1: CACCCGUGCAAAAAUGCAGGGGUCUAAAACUGAGCGGAUAACCUCUCUAUGG
RNA 2: GGGAAUGGAUCCACAUCUACGAAUUCGUAUCAUAGAGAAGUUAUCCGCUCACCGAGAUCGGAAGAGCACACGU
B25: target 1 MT 5'PFS GGG 3'PFS UCU (mixed)
RNA 1: CACCCGUGCAAAAAUGCAGGGGUCUAAAACUGAGCGGAUAACCUCUCUAUGG
RNA 2: GGGAAUGGAUCCACAUCUACGAAUUCGGGCCAUAGAGAGGUUAUCCGCUCAUCUAGAUCGGAAGAGCACACGU
B26: target 1 MT 5'PFS GGG 3'PFS UCC (mixed)
RNA 1: CACCCGUGCAAAAAUGCAGGGGUCUAAAACUGAGCGGAUAACCUCUCUAUGG
RNA 2: GGGAAUGGAUCCACAUCUACGAAUUCGGGCCAUAGAGAGGUUAUCCGCUCAUCCAGAUCGGAAGAGCACACGU
B27: target 1 MT 5'PFS GCA 3'PFS AGU (mixed)
RNA 1: CACCCGUGCAAAAAUGCAGGGGUCUAAAACUGAGCGGAUAACCUCUCUAUGG
RNA 2: GGGAAUGGAUCCACAUCUACGAAUUCGCACCAUAGAGAGGUUAUCCGCUCAAGUAGAUCGGAAGAGCACACGU
B28: target 1 MT 5'PFS GAA 3'PFS AUA (mixed)
RNA 1: CACCCGUGCAAAAAUGCAGGGGUCUAAAACUGAGCGGAUAACCUCUCUAUGG
RNA 2: GGGAAUGGAUCCACAUCUACGAAUUCGAACCAUAGAGAGGUUAUCCGCUCAAUAAGAUCGGAAGAGCACACGU

Each binder was assayed against T1, EsCas13d, nuclease-dead (assay: crRNA (strand 1, pre-loaded); Mg2+; 40 mM Tris-HCl pH 7.5, 150 mM NaCl, 6 mM MgCl2, 1 mM DTT, 0.1% Tween-20, 0.2 mg/ml BSA; 25 C; 10 min per concentration, then washed). Conditions: tags: His6-TwinStrep-SUMO cleaved; N-terminal SNAP kept (SNAP-Surface 488); label: 3' end held by stalled T7 RNA polymerase.
B1 was tested, and the Kd was ~110 nM. Work on B2 yielded a Kd of 28.7 ± 1.75 nM. B3 showed a Kd of ~25 nM. Binder B4 has a Kd of 67 ± 33 nM. With B5 the Kd was 52 ± 18 nM. In the case of B6, the Kd is reported as 20.7 ± 3.55 nM. With B7 the Kd was 22.6 ± 1.7 nM. With B8 the Kd was 43.5 ± 10 nM. B9 was tested, and the Kd was 11.4 ± 0.8 nM. For B10, the Kd was 13.2 ± 3.15 nM. B11 showed a Kd of 15.6 ± 5.05 nM. B12 gave a Kd of 29 ± 11.5 nM. For B13, the Kd was 33 ± 15 nM. Binder B14 has a Kd of 44.5 ± 21 nM. In the case of B15, the Kd is reported as 6.83 ± 0.425 nM. With B16 the Kd was 23.4 ± 1.85 nM. B17 was tested, and the Kd was 21.9 ± 1 nM. Binder B18 has a Kd of 22.9 ± 2.2 nM. Binder B19 has a Kd of 18.6 ± 3.75 nM. For B20, the Kd was 9.45 ± 0.75 nM. With B21 the Kd was 22.5 ± 4.15 nM. Binder B22 has a Kd of 39.5 ± 12.5 nM. With B23 the Kd was 17 ± 6 nM. In the case of B24, the Kd is reported as 10.7 ± 1.7 nM. Binder B25 has a Kd of 14.6 ± 2.1 nM. B26 showed a Kd of 28 ± 5 nM. B27 showed a Kd of 23 ± 5 nM. For B28, the Kd was 32 ± 7.5 nM.
